Experimental data published in PMC11558822, “Myc 9aaTAD activation domain binds to mediator of transcription with superior high affinity” (Molecular Medicine, 2024).
No end group written: not given here. *: point of attachment. Biotin = O=C1N[C@H]2[C@H](CS[C@H]2CCCCC(=O)*)N1

B1: N-Myc 9aaTAD peptide (Biotin-GSSS-EPPSWVTEMLLEN) (peptide)
peptide: Biotin-GSSSEPPSWVTEMLLEN
notes: linker between biotin and the N-Myc stretch; human N-Myc stretch with its 9aaTAD; also called N-Myc peptide; NMY peptide; source: synthetic peptide (Apeptide Shanghai Chutide Biotechnology), 95% purity
B2: c-Myc 9aaTAD peptide (Biotin-GSSS-TQLEMVTELLG) (peptide)
peptide: Biotin-GSSSTQLEMVTELLG
notes: linker between biotin and the c-Myc stretch; it may belong to the linker; also called c-Myc peptide; MYC peptide; source: synthetic peptide (Apeptide Shanghai Chutide Biotechnology), 95% purity
B3: MLL 9aaTAD peptide (Biotin-GS-NILPSDIMDFVLKNT) (peptide)
peptide: Biotin-GSNILPSDIMDFVLKNT
notes: linker between biotin and the MLL stretch; MLL stretch with its 9aaTAD; Positive control of the BLI assay; also called MLL peptide; source: synthetic peptide (Apeptide Shanghai Chutide Biotechnology), 95% purity
B4: Sp1-Ac peptide, acidic form of Sp1 9aaTAD (Biotin-GSS-GDVSWDTLDLDDLD) (peptide)
peptide: Biotin-GSSGDVSWDTLDLDDLD
notes: linker between biotin and the Sp1 stretch; also called #SpD; acidic modification; source: synthetic peptide (Apeptide Shanghai Chutide Biotechnology), 95% purity

Key:
[1] = biological target: T1, KIX domain of CBP coactivator (region 586-672) (UniProt P45481 586-672); assay: BLI; biotinylated peptide immobilised on streptavidin SA biosensors (Octet RED96e); KIX domain in solution at 0.31, 0.63, 1.25, 2.5 and 5.0 uM; 30 C, 1000 rpm; 20 mM sodium phosphate pH 6.0, 50 mM NaCl; blank-subtracted, 1:1 model, steady-state analysis; apparent KD, average of pentaplicate; conditions: both partners purified
T1 construct: GST-His6x tag removed by TEV protease; also called KIX protein; source: expressed as GST-His6x-TEV-KIX from pGEX-2T, purified (His trap Ni column, TEV cleavage, second His trap, HiLoad S30); not shown: GST, N-terminal, cleaved; His6, N-terminal, cleaved
T1 sequence (P45481 other isoform, or with tags, fused parts or gaps): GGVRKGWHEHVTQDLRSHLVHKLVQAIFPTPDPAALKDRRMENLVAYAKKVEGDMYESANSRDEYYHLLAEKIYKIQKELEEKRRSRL

[2] = biological target: T1, KIX domain of CBP coactivator (region …); assay: BLI; biotinylated Sp1 or Sp1-Ac peptide immobilised, KIX in solution in the 3-16 uM range; steady-state analysis, 1:1 model; apparent KD; conditions: both partners purified

| Binder | Kd [1] | Kd [2] |
| --- | --- | --- |
| B1 | 880 ± 110 nM | – |
| B2 | 2160 ± 1170 nM | – |
| B3 | 1170 ± 210 nM | – |
| B4 | – | 9770 ± 1570 nM |
